From the supplement of paper PMC11908140

B1: library; numbered along this chain (parent)
chain: MRKPRAAVGSGHRKQAASQEGRQKHAKNNSQAKPSACDGLARQPEEVVLQASVSSYHLFRDVAEVTAFRGSLLSWYDQEKRDLPWRRRAEDEMDLDRRAYAVWVSEVMLQQTQVATVINYYTGWMQKWPTLQDLASASLEEVNQLWAGLGYYSRGRRLQEGARKVVEELGGHMPRTAETLQQLLPGVGRYTAGAIASIAFGQATGVVDGNVARVLCRVRAIGADPSSTLVSQQLWGLAQQLVDPARPGDFNQAAMELGATVCTPQRPLCSQCPVESLCRARQRVEQEQLLASGSLSGSPDVEECAPNTGQCHLCLPPSEPWDQTLGVVNFPRKASRKPPREESSATCVLEQPGALGAQILLVQRPNSGLLAGLWEFPSVTWEPSEQLQRKALLQELQRWAGPLPATHLRHLGEVVHTFSHIKLTYQVYGLALEGQTPVTTVPPGARWLTQEEFHTAAVSTAMKKVFRVYQGQQPGTCMGSKRSQVSSPCSRKKPRMGQQVLDNFFRSHISTDAHSLNSAAQ

Variants of: B1
Assay: 8OG:A repair function score (normalized; synonymous = 0, nonsense = -1) (normalized log-likelihood score); higher = more repair activity (WT-like)
Conditions: with 8OG:A DNA repair reporter (GFP) in HEK-293 MUTYH KO cells
Procedure: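 Saturation mutagenesis (NNN codon scan) of the MUTYH cDNA (521-aa nuclear isoform NM_001048174.1 / NP_001041639), stably expressed under doxycycline induction in HEK-293 MUTYH knockout cells. Cells were co-transfected with an 8OG:A-bearing GFP repair reporter plus mCherry and sorted 72 h later into GFP+ and GFP− bins, three replicates per tile. The Rosace log2 enrichment (GFP+ vs GFP−) was converted per tile to a normalized function score with synonymous variants centered at 0 and nonsense variants (codons 1-471) at -1; low-abundance variants were removed.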

Variant	8OG:A repair function score
P247I	-0.969
G412C	-0.809
L169F	-0.0235
F505R	0.016
L257F	-0.285
E92M	-0.0276
C216P	-0.98
A199H	-0.874
H514I	-0.00558
R42E	0.021
L183V	0.0213
M108F	-0.641
P402C	-0.0435
S483E	-0.0311
S483H	0.00458
F504V	-0.00446
Y425K	-0.0804
C272I	-1.3
C272P	-1.26
P34M	0.176
W146R	-1.28
Q126L	0.0989
P84A	-0.138
V206M	-0.563

Variant	8OG:A repair function score
V206K	-1.01
P494R	0.00547
A137S	-0.0075
P174S	-0.753
R446C	-0.342
W75Q	-1.46
E141K	-0.0452
V214W	-0.258
V214S	-0.707
A238F	-0.858
R495V	0.0193
R495M	0.0166
Q470E	-0.000322
K164S	-0.168
R2V	0.0618
A400E	-0.727
E160R	-0.136
E160I	-0.0174
E46R	0.0933
R219I	-0.887
V348L	-0.351
V348P	-1.11
V348T	-0.732
G434Q	-0.0366

Variant	8OG:A repair function score
G434F	0.125
T204S	-0.127
T204E	0.00943
S419P	-0.574
S419L	-0.749
N329K	-0.105
N329Q	-0.0134
R364M	-0.577
A115P	-0.0424
L313C	-0.146
G201I	-0.543
A67C	0.00689
P443E	-0.318
H416N	-0.342
D322P	-0.322
V142I	-0.297
T440E	0.0718
T440M	-0.109
L40N	0.042
L40M	0.227
L370C	-0.0696
P317R	0.0296
W128M	-0.374
Q323L	-0.0798

Variant	8OG:A repair function score
S518I	-0.00126
S105K	-1.25
L134Y	-0.464
Q310I	0.0174
M255H	-1.03
N307K	-0.0345
N307M	-0.145
V48P	-0.11
V48R	0.0418
V48L	-0.0249
R86P	-0.841
H57Y	-0.569
H57F	-0.751
V114E	-0.932
A177P	-0.0959
A177H	-0.14
G309H	0.0104
L215T	-0.86
E79N	-0.0384
Y469E	-0.89
P404V	-0.000894
Q265H	0.0203
S292L	-0.0154
S292E	-0.0389

Variant	8OG:A repair function score
S292N	-0.0335
M93T	0.00168
M93F	0.00598
Q363L	-0.242
R491T	0.0121
S227L	-0.119
S227V	-0.241
R506W	-0.0815
A259P	-1.09
Q182H	0.0507
A431P	-0.0943
A431D	-0.204
V62F	0.00406
V62Q	-0.0156
G479P	0.0129
S318H	-0.0534
D91L	0.00629
D91G	-0.00708
D243A	-0.387
Q132Y	-0.125
Y56C	-0.0129
L408I	0.246
L408F	-0.529
P185L	-0.344

Variant	8OG:A repair function score
P185G	-0.141
Q351W	-0.0304
S296C	-0.0117
S296I	-0.0485
R97D	0.00527
L432S	-0.284
L432C	0.0294
A147K	-0.229
E168Y	-0.173
T263W	-0.28
E350L	-0.12
E350M	0.00868
V427E	-1.24
V47M	-0.0812
V47E	-0.116
L289Q	0.015
C269Y	-1.12
E285A	0.00663
E285T	-0.0287
P299L	-0.0164
P299Y	-0.00692
T417Y	0.325
G186M	-0.885
G186C	-0.439

Variant	8OG:A repair function score
S231M	0.155
G161A	-0.00122
G150N	-1.15
K481T	-0.0524
K481V	-0.0202
A6P	-0.0227
A6N	-0.0265
T324P	-0.236
T324H	-0.0241
W381M	0.148
Y76E	-1.5
P225E	-0.604
T346R	-0.56
Q435R	0.0382
Q435G	-0.0569
V65N	-0.208
D77T	-0.0415
D77V	-0.0835
C477Q	0.0117
C477S	-0.00994
L360H	-1.17
L360D	-1.19
L360T	-1.26
